Assay results published in patent publication US9499608.

Experiments:
[1] = target: WNV DIII fragment (residues 296-404) of the New York 1999 strain, expressed in E. coli and refolded (West Nile virus, New York 1999 strain) (UniProt Q9Q6P4); assay: SPR
[2] = target: WNV E ectodomain (residues 1-404) of the New York 1999 strain, expressed in E. coli and refolded (West Nile virus, New York 1999 strain) (UniProt Q9Q6P4); assay: SPR

Substance | Kd [1] [nM] | Kd [2] [nM]
mHu-E16 (mammalian CHO cell-produced humanized E16 monoclonal antibody) | 32 | 45
pHu-E16 (plant-produced humanized E16 monoclonal antibody against West Nile virus) | 41 | 46
